In patent US20220242968A1 (BIOTHEUS, published 2022):
Numbering of substitutions follows the chain as printed.

T1: CEACAM7 overexpressed on CHO cells (UniProt Q14002 36-242, limits assumed)
T1 construct: whole, on cells; also called CHO-CEACAM7
T1 sequence (looked up): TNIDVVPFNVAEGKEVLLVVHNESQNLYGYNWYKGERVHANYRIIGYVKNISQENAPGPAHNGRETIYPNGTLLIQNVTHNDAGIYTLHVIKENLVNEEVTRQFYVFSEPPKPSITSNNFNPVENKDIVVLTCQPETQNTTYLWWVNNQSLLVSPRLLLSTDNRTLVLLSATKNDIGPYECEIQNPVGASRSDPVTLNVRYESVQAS

T2: CEACAM1 overexpressed on SW620 cells (UniProt P13688 35-526, limits assumed)
T2 construct: whole, on cells; also called SW620-CEACAM1
T2 sequence (looked up): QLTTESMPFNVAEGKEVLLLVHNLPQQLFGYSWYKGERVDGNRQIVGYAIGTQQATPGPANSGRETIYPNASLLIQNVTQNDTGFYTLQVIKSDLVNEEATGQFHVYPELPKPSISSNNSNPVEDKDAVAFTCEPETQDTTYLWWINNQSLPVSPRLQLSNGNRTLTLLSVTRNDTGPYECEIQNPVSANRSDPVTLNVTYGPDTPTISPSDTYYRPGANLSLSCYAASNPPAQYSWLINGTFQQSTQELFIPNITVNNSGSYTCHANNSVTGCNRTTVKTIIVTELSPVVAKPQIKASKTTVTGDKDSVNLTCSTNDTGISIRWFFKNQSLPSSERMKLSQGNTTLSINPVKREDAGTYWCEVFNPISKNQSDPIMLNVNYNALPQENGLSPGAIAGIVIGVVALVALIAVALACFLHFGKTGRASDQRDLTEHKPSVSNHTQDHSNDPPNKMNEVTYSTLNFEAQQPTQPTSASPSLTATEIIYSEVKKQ

T3: CEACAM3 overexpressed on SW620 cells (UniProt P40198 35-252, limits assumed)
T3 construct: whole, on cells; also called SW620-CEACAM3
T3 sequence (looked up): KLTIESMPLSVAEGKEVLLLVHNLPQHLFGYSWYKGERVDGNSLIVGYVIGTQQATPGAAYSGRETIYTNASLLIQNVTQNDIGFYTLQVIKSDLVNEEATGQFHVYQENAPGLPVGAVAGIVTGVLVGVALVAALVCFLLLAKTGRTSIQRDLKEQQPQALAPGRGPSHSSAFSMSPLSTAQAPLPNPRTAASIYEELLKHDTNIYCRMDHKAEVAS

T4: CEACAM8 overexpressed on CHO cells (UniProt P31997 35-320, limits assumed)
T4 construct: whole, on cells; also called CHO-CEACAM8
T4 sequence (looked up): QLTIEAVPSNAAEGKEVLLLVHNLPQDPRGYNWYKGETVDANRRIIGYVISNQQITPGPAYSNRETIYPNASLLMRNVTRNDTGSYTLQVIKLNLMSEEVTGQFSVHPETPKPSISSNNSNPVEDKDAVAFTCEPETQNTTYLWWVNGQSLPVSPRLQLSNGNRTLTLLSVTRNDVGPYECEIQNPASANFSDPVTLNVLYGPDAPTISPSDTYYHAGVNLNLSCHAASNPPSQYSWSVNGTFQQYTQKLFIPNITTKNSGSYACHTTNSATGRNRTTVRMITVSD

T5: human CEACAM5 protein (human, UniProt P06731 35-685, limits assumed)
T5 construct: also called CD66e
T5 sequence (looked up): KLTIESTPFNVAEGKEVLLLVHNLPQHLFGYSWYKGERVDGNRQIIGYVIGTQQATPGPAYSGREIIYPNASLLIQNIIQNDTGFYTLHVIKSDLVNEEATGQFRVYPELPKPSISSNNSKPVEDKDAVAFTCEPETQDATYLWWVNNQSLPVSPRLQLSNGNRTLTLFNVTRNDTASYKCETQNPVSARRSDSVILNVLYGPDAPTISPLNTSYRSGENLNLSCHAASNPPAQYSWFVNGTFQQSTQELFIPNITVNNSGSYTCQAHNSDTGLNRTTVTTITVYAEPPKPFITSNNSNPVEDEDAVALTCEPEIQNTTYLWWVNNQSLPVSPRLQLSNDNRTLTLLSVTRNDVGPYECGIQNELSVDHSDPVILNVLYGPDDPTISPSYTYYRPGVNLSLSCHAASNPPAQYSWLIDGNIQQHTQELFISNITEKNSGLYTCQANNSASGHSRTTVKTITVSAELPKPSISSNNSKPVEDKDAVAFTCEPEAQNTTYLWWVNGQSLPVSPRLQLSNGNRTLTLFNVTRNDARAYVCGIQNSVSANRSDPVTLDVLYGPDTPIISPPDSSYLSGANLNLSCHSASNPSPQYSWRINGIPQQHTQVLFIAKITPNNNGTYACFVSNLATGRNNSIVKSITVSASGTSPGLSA

T6: human CEACAM5 on tumor cells (LOVO, LS174T, KATO3) (human, UniProt P06731 35-685)
T6 sequence (looked up): T5 sequence (looked up)

B1: human-mouse chimeric antibody UM05-5L (antibody, human IgG1, kappa, V domains shown)
VH: QVQLQQSDADLVKPGASVKISCKVSGYTFTDHTIHWMKQRPEQGLECIGYIYPRDGNTKYNEKFKGKATLTADRSSITAYMQLNSLTSEDSAVYFCARPIYDGYSFDYWGQGTTLTVSS
VL: QIVLTQSPAIMSASPGEKVTMTCRASSSVSYMHWYQQKSGTSPKRWIYDTSKLASGVPARFSGSGSGTSYSLTISSMAAEDAATYYCQQWTRNPPTFGAGTKLELKR
notes: expressed in HEK293
B2: UM05-5L C47W (antibody, human IgG1, kappa, V domains shown)
VH: B1 VH with C47W
VL: B1 VL
notes: also called mutated human-mouse chimeric antibody UM05-5L (VH Cys47 to Trp)
B3: humanized antibody hUM05-3 (antibody, V domains shown)
VH: EVQLVQSGAEVKKPGATVKISCKVSGYTFTDHTMHWMQQAPGQGLEWIGLIYPRDGSTIYNEKFQGRATLTADRSTDTAYMELSSLRSEDTAVYFCARPIYDGYSFDYWGQGTLVTVSS
VL: QIVLTQSPATLSASPGERATLSCRASSSVSYMHWYQQKPGQAPKRWIYDTSNRATGVPARFSGSGSGTDYTLTISSMEPEDAAVYYCQQWTRNPPTFGQGTKLELK
notes: detected with anti-human IgG Fc-APC
B4: hUM05-3 W47C (antibody, V domains shown)
VH: B3 VH with W47C
VL: B3 VL
notes: also called mutated humanized antibody hUM05-3 (VH Trp47 to Cys)

Tests used:
[1] = biological target: T1, CEACAM7 overexpressed on CHO cells; experiment: FACS on CHO-CEACAM7 cells
Procedure: (§1) Flow cytometry (FACS) was used to detect the binding of antibody to LOVO tumor cells naturally expressing human CEACAM5 or cells overexpressing different CEACAM family members. In short, cells were first collected, washed with PBS, counted, and diluted to obtain 2*10⁶/ml cell suspension; 10 μl of an antibody working solution was added to 100 μl of the cell suspension, and incubated at 4° C. for 30 min in the dark; after washing twice with PBS, a corresponding fluorescent-labeled secondary antibody Goat-anti-Human IgG (H+L) (Invitrogen) was added, incubated at 4° C. for 30 min in the dark, after washing twice with PBS, it was suspended in 400 μl of FACS buffer, and the binding profile of the antibody to the cells were detected by FACS.
(§2) The binding profile of the supernatants of the chimeric antibody UM05-5L and the control antibody UM05-8 (anti-CEACAM5 antibody, prepared by the hybridoma method in our laboratory) to different cells at a concentration of 3 μg/mL were detected, in which SW620-CEACAM1 was a cell overexpressing CEACAM1, SW620-CEACAM3 was a cell overexpressing CEACAM3, CHO-CEACAM6 was a cell overexpressing CEACAM6, CHO-CEACAM7 was a cell overexpressing CEACAM7, and CHO-CEACAM8 was a cell overexpressing CEACAM8. […]

[2] = biological target: T2, CEACAM1 overexpressed on SW620 cells; experiment: FACS on SW620-CEACAM1 cells
Procedure: as §1, §2

[3] = biological target: T3, CEACAM3 overexpressed on SW620 cells; experiment: FACS on SW620-CEACAM3 cells
Procedure: as §1, §2

[4] = biological target: T4, CEACAM8 overexpressed on CHO cells; experiment: FACS on CHO-CEACAM8 cells
Procedure: as §1, §2

human CEACAM5 protein = biological target: T5, human CEACAM5 protein; experiment: ELISA, plate coated with human CEACAM5 protein at 1 µg/mL
Procedure: On the next day, it was first washed with 300 μL of PBST (Tween20: 0.5% o) for 3 times, then blocked with 100 μL/well of 5% BSA/PBS for 1 hour, and shaken at room temperature. Washing was performed 3 times with 300 μL of PBST. A series of dilution solutions of antibody samples were prepared with PBS, and added at 100 μL/well to the 96-well plate and shaken at room temperature for 1 hour. Washing was performed 3 times with 300 μL of PBST. A secondary antibody goat anti-human IgG HRP solution was prepared, added at 100 μL/well to the 96-well plate, and shaken at room temperature for 30 minutes. Washing was performed 4 times with 300 μL of PBST. 100 μL/well TMB was added to perform color development for 20 min. 100 μL/well of 0.6N H₂SO₄ was added to stop the color development, and OD450nm was detected.

[5] = biological target: T6, human CEACAM5 on tumor cells (LOVO, …); experiment: cell-based or functional assay
[6] = biological target: T6, human CEACAM5 on tumor cells (LOVO, …); experiment: FACS on LS174T cells
Procedure: LS174T cells (tumor cells with high expression of CEACAM5) were cultured in RPMI1640 medium containing 10% FBS. After digesting LS174T cells with TrypLE trypsin, the cells were centrifuged and resuspended in DPBS solution (FACS buffer, 4° C.) containing 2% BSA; then, the cells were added at 5×10⁵/100 μL/well to the U-shaped bottom 96-well plate, and a series of dilution solutions of antibody were added to the U-shaped bottom 96-well plate, mixture was incubated at 4° C. for 1 hour. After incubation, the mixture was centrifuged and the resulted supernatant was discarded; 100 μl of secondary antibody (anti-human IgG Fc-APC) was added to each well, and incubated at 4° C. for 1 hour. After incubation, the cells were washed once with FACS buffer, resuspended in 200 μl FACS buffer, and the fluorescence signal value was read in BD C6 plus.
The 47th amino acid (Cys) of the human-mouse chimeric antibody UM05-5L VH was mutated to Trp, and the mutated antibody was named UM05-5L C47W; the 47th amino acid (Trp) of the humanized antibody hUM05-3 VH was mutated to Cys, and the mutated antibody was named hUM05-3 W47C. As described in Example 10, the ability of the antibody binding to LS174T cells was tested.

[7] = biological target: T6, human CEACAM5 on tumor cells (LOVO, …); experiment: FACS on LOVO tumor cells naturally expressing human CEACAM5
Procedure: as §1
Furthermore, we used FACS to detect the EC50 of the chimeric antibody UM05-5L binding to LOVO tumor cells that naturally expressed human CEACAM5. […] Based on the above results, the chimeric antibody UM05-5L had excellent binding affinity, specificity and selectivity to CEACAM5.

Binder | binding result [1] | binding result [2] | binding result [3] | binding result [4] | EC50 (human CEACAM5 protein) [µg/mL] | ADCC activity (luciferase in Jurkat/ADC effector cells, LOVO target cells), EC50 [5] [µg/mL] | EC50 [6] [µg/mL] | Emax MFI (Average fluorescence intensity) [6] [MFI] | EC50 [7] [µg/mL]
B1 | no binding (tested: 3 µg/mL) | no binding (tested: 3 µg/mL) | no binding (tested: 3 µg/mL) | no binding (tested: 3 µg/mL) | 0.105 | 0.85 | 0.81 | 79700 | 3.17
B2 | – | – | – | – | – | – | 2.46 | 55200 | –
B3 | – | – | – | – | – | – | 0.53 | 52900 | –
B4 | – | – | – | – | – | – | 1.47 | 34400 | –
